According to the supplement of paper PMC10567573:

B1: SMG5 (parent)
chain: QEKLQVLMAEGLLPAVKVFLDWLR

Variants of: B1
Experiment: protein stability index of a GFP-peptide fusion (GPS, HEK-293T) (PSI 1-6); higher = more stable
Conditions: c terminus: a fixed tail appended
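Note: lentivirally expressed fusions sorted by FACS into six bins by GFP to DsRed ratio, PSI derived from sequencing read proportions per bin multiplied by bin number.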

Row | Variant | protein stability index
1 | QEKLQVLMAFGLLPAVKVFLDWLR [E10F] | 1.86
2 | QEKLQVLMAHGLLPAVKVFLDWLR [E10H] | 3.21
3 | QEKLQVLMAVGLLPAVKVFLDWLR [E10V] | 1.76
4 | QEKLQVLMACGLLPAVKVFLDWLR [E10C] | 2.58
5 | QEKLQVLMASGLLPAVKVFLDWLR [E10S] | 2.61
6 | QEKLQVLMAIGLLPAVKVFLDWLR [E10I] | 1.4
7 | QEKLQVLMAYGLLPAVKVFLDWLR [E10Y] | 1.56
8 | QEKLQVLMALGLLPAVKVFLDWLR [E10L] | 1.93
9 | QEKLQVLMADGLLPAVKVFLDWLR [E10D] | 1.44
10 | QEKLQVLMARGLLPAVKVFLDWLR [E10R] | 1.95
11 | QEKLQVLMATGLLPAVKVFLDWLR [E10T] | 2.89
12 | QEKLQVLMAPGLLPAVKVFLDWLR [E10P] | 2.12
13 | QEKLQVLMAMGLLPAVKVFLDWLR [E10M] | 1.85
14 | QEKLQVLMAAGLLPAVKVFLDWLR [E10A] | 2.7
15 | QEKLQVLMAQGLLPAVKVFLDWLR [E10Q] | 2.35
16 | QEKLQVLMAEGLLPAVAVFLDWLR [K17A] | 2.99
17 | QEKLQVLMAEGLLPAVNVFLDWLR [K17N] | 2.26
18 | QEKLQVLMAEGLLPAVIVFLDWLR [K17I] | 2.31
19 | QEKLQVLMAEGLLPAVRVFLDWLR [K17R] | 2.07
20 | QEKLQVLMAEGLLPAVCVFLDWLR [K17C] | 1.86
21 | QEKLQVLMAEGLLPAVEVFLDWLR [K17E] | 1.72
22 | QEKLQVLMAEGLLPAVFVFLDWLR [K17F] | 1.91
23 | QEKLQVLMAEGLLPAVMVFLDWLR [K17M] | 1.79
24 | QEKLQVLMAEGLLPAVLVFLDWLR [K17L] | 2.03

Row | Variant | protein stability index
25 | QEKLQVLMAEGLLPAVHVFLDWLR [K17H] | 1.71
26 | QEKLQVLMAEGLLPAVYVFLDWLR [K17Y] | 2.78
27 | QEKLQVLMAEGLLPAVQVFLDWLR [K17Q] | 1.44
28 | QEKLQVLMAEGLLPAVSVFLDWLR [K17S] | 1.82
29 | QEKLQVLMAEGLLPAVTVFLDWLR [K17T] | 2.05
30 | QEKLQVLMAEGLLPAVWVFLDWLR [K17W] | 2.18
31 | QEKLQVLMAEGLLPAVPVFLDWLR [K17P] | 1.2
32 | QEKLQVLMAEGLLPAVGVFLDWLR [K17G] | 1.91
33 | QEKLQVLMAEGLLPAVVVFLDWLR [K17V] | 1.52
34 | QEKLQVLMAEGLLPAVDVFLDWLR [K17D] | 1.27
35 | QEKLQVLMAEGLLTAVKVFLDWLR [P14T] | 2.54
36 | QEKLQVLMAEGLLGAVKVFLDWLR [P14G] | 1.17
37 | QEKLQVLMAEGLLKAVKVFLDWLR [P14K] | 3.27
38 | QEKLQVLMAEGLLQAVKVFLDWLR [P14Q] | 1.83
39 | QEKLQVLMAEGLLEAVKVFLDWLR [P14E] | 1.96
40 | QEKLQVLMAEGLLWAVKVFLDWLR [P14W] | 2.46
41 | QEKLQVLMAEGLLRAVKVFLDWLR [P14R] | 1.69
42 | QEKLQVLMAEGLLVAVKVFLDWLR [P14V] | 1.42
43 | QEKLQVLMAEGLLLAVKVFLDWLR [P14L] | 1.67
44 | QEKLQVLMAEGLLYAVKVFLDWLR [P14Y] | 2.43
45 | QEKLQVLMAEGLLIAVKVFLDWLR [P14I] | 1.19
46 | QEKLQVLMAEGLLAAVKVFLDWLR [P14A] | 2.25
47 | QEKLQVLMAEGLLDAVKVFLDWLR [P14D] | 2.29
48 | QEKLQVLMAEGLLNAVKVFLDWLR [P14N] | 2.38

Row | Variant | protein stability index
49 | QEKLQVLMAEGLLMAVKVFLDWLR [P14M] | 1.75
50 | QEKLQVLMAEGLLCAVKVFLDWLR [P14C] | 1.7
51 | QEKLQVLMAEGLLSAVKVFLDWLR [P14S] | 2.32
52 | QEKLQVLMAEGLLFAVKVFLDWLR [P14F] | 1.97
53 | QEKLQVLMCEGLLPAVKVFLDWLR [A9C] | 2.63
54 | QEKLQVLMPEGLLPAVKVFLDWLR [A9P] | 2.41
55 | QEKLQVLMSEGLLPAVKVFLDWLR [A9S] | 2.19
56 | QEKLQVLMTEGLLPAVKVFLDWLR [A9T] | 1.42
57 | QEKLQVLMDEGLLPAVKVFLDWLR [A9D] | 1.76
58 | QEKLQVLMWEGLLPAVKVFLDWLR [A9W] | 1.78
59 | QEKLQVLMEEGLLPAVKVFLDWLR [A9E] | 2.95
60 | QEKLQVLMNEGLLPAVKVFLDWLR [A9N] | 3.04
61 | QEKLQVLMKEGLLPAVKVFLDWLR [A9K] | 2.21
62 | QEKLQVLMLEGLLPAVKVFLDWLR [A9L] | 3.66
63 | QEKLQVLMMEGLLPAVKVFLDWLR [A9M] | 1.81
64 | QEKLQVLMVEGLLPAVKVFLDWLR [A9V] | 1.58
65 | QEKLQVLMIEGLLPAVKVFLDWLR [A9I] | 1.82
66 | QEKLQVLMFEGLLPAVKVFLDWLR [A9F] | 1.78
67 | QEKLQVLMHEGLLPAVKVFLDWLR [A9H] | 2.41
68 | QEKLQVLMREGLLPAVKVFLDWLR [A9R] | 4.4
69 | QEKLQVLMQEGLLPAVKVFLDWLR [A9Q] | 2.82
70 | QEKLQVLMYEGLLPAVKVFLDWLR [A9Y] | 1.98
71 | QEKLQVLMAEGLLPAIKVFLDWLR [V16I] | 2.16
72 | QEKLQVLMAEGLLPAMKVFLDWLR [V16M] | 1.85

Row | Variant | protein stability index
73 | QEKLQVLMAEGLLPAEKVFLDWLR [V16E] | 2.15
74 | QEKLQVLMAEGLLPAYKVFLDWLR [V16Y] | 2.29
75 | QEKLQVLMAEGLLPAHKVFLDWLR [V16H] | 1.93
76 | QEKLQVLMAEGLLPATKVFLDWLR [V16T] | 2.46
77 | QEKLQVLMAEGLLPAAKVFLDWLR [V16A] | 1.67
78 | QEKLQVLMAEGLLPACKVFLDWLR [V16C] | 1.98
79 | QEKLQVLMAEGLLPAFKVFLDWLR [V16F] | 2.56
80 | QEKLQVLMAEGLLPAWKVFLDWLR [V16W] | 1.96
81 | QEKLQVLMAEGLLPADKVFLDWLR [V16D] | 1.95
82 | QEKLQVLMAEGLLPAKKVFLDWLR [V16K] | 2.04
83 | QEKLQVLMAEGLLPAPKVFLDWLR [V16P] | 3.13
84 | QEKLQVLMAEGLLPANKVFLDWLR [V16N] | 1.75
85 | QEKLQVLMAEGLLPARKVFLDWLR [V16R] | 2.25
86 | QEKLQVLMAEGLLPASKVFLDWLR [V16S] | 2.31
87 | QEKLQVLMAEGLLPAQKVFLDWLR [V16Q] | 1.86
88 | QEKLQVLMAEGLLPAGKVFLDWLR [V16G] | 1.15
89 | QEKLQVLMAEGLLPALKVFLDWLR [V16L] | 1.39
90 | QEKLQVLMAEGLLPAVKCFLDWLR [V18C] | 2.37
91 | QEKLQVLMAEGLLPAVKAFLDWLR [V18A] | 2.19
92 | QEKLQVLMAEGLLPAVKDFLDWLR [V18D] | 2.44
93 | QEKLQVLMAEGLLPAVKFFLDWLR [V18F] | 1.94
94 | QEKLQVLMAEGLLPAVKEFLDWLR [V18E] | 2.37
